Measurements: publication PMC3478187, “PEGylation, increasing specific activity and multiple dosing as strategies to improve the risk-benefit profile of targeted radionuclide therapy with ^177Lu-DOTA-bombesin analogues” (EJNMMI Research, 2012)
Read-outs that look alike come from different tables or passages of the source.

Tests used:
BN2/GRP receptors = biological target: T1, BN2/GRP receptors (Homo sapiens, UniProt P30550); experiment: Apparent receptor affinity (IC50), displacement of ^99mTc-BN(7-14) on whole PC-3 cells; assay type: binding
T1 construct: Since IC50 determination was done on whole PC-3 cells; endogenous in cells; host or cells: PC-3 cells (human prostate carcinoma)
Procedure: Material & Methods: PC-3 cells at confluence were placed in 48-well plates and left to attach overnight. […] After 1 h incubation at 37°C, the cells were twice washed with cold PBS and solubilized by adding 400 μl (2 x) of 1 N NaOH at 37°C. The bound radioactivity was measured in the gamma counter. The experiments were performed in triplicate.

[1] = Metabolic stability in human plasma; assay type: in vitro ADME; conditions: 37 °C
Procedure: The labelled analogues were incubated with human plasma (final concentration, 10 MBq/0.6 ml) at 37 °C for various time intervals up to 12 days. After incubation, proteins were precipitated with acetonitrile/ethanol (1:1) and TFA (0.1%) and then centrifuged. The supernatant was analysed with RP-high-performance liquid chromatography (HPLC) equipped with a radioactivity detector. […] The experiments were performed two times.

[2] = Octanol/PBS partition coefficient (log D); assay type: physicochemical; conditions: shake-flask 1-octanol/PBS (1:1), pH 7.4, 30 kBq, vortex 1 min, centrifuged, gamma counter, sextuplicate, mean ± SD
Procedure: Material & Methods: The octanol/PBS partition coefficients were determined at pH 7.4. Five μl containing 30 kBq of the radiolabelled compounds in phosphate buffered saline (PBS) were added to a vial which contained 1.2 ml of 1-octanol and PBS (1:1). After vortexing for 1 min, the vial was centrifuged (5 min, 10 000 rpm) to ensure complete separation of layers. Then, 40 μl of each layer were taken in a preweighed vial and measured in a gamma counter (Packard Canberra Cobra II, Meriden, USA). Counts per weight unit of sample were calculated and log D values were determined as described by Pillarsetty et al. using the formula log10D=log10 (counts in 1 g of octanol/counts in 1 g of PBS). The experiments were performed in sextuplicate.

[3] = Biodistribution in nude mice bearing PC-3 tumour xenografts; conditions: female, CD-1 nu/nu, mouse, in vivo, iv, total radioactivity; for tissue uptake at 1 h / tissue uptake at 24 h: 0.3 MBq/0.075 nmol i.v., mean ± SD
Procedure: All animal experiments were conducted in compliance with the Swiss animal protection laws and with the ethical principles and guidelines for scientific animal experimentation established by the Swiss Academy of Natural Sciences. Biodistribution studies were performed with 6- to 8-week-old female CD-1 nu/nu mice (20 to 25 g) purchased from Charles River Laboratories (Sulzfeld, Germany). For the induction of tumour xenografts, each mouse received subcutaneously 8 × 10^6 PC-3 cells in 150 μl culture medium without supplements. The tumours were allowed to grow for at least 3 weeks. On the day of the experiment, the mice (3 to 6 per group) received the radioactive conjugates intravenously. […] Receptor-blocking studies were performed using 100 μg of unlabelled BN(1–14) co-injected with the corresponding radiolabelled BN analogue. At 1, 4 and 24 h post injection (p.i.), the animals were euthanised and dissected. Blood, tumours and various healthy tissues and organs were collected, weighed and examined for radioactivity. Results are expressed as percentage of injected dose per gram of tissue (% ID/g).

[4] = cited from earlier work
[5] = cited from earlier work; for GI uptake: HPLC purified
Procedure: The biodistribution data, in which 0.002 nmol of ^177Lu-AMBA and ^177Lu-DOTA-8-AOC-BN(7–14) (HPLC purified) was injected per mouse [23], and the data of ^177Lu-DOTA-PESIN (0.2 nmol peptide) [25] were compared with our biodistribution data, in which 0.075 nmol of the ^177Lu-labelled BN analogues were injected. This 0.075 nmol is the nearest possible approximation to the 0.002 nmol without HPLC purification, which is desired in clinics.

PC-3 xenografts = conditions: ref [24]; cited from earlier work
From the text: Comparing our study with the therapy studies with ^177Lu-AMBA [23], ^177Lu-DOTA-PESIN [25] (2 × 28 MBq, 0.2 nmol) and ^177Lu-DOTA-8-AOC-BN(7–14), we found the tumour growth inhibition with our PEGylated BN analogue to be lower than with AMBA (approximately 73% vs. approximately 82%) but higher than with DOTA-PESIN (approximately 73% vs. approximately 45%) and roughly the same as with ^177Lu-DOTA-8-AOC-BN(7–14) (approximately 73% vs. approximately 79%) 3 weeks after the first dose. However, such a comparison is not fully conclusive since these therapy studies differ in tumour size at ...

[6] = 1 h p.i., 0.002 nmol per mouse, ref [23]
[7] = 24 h p.i., 0.002 nmol per mouse, ref [23]

T1 sequence (P30550 whole entry): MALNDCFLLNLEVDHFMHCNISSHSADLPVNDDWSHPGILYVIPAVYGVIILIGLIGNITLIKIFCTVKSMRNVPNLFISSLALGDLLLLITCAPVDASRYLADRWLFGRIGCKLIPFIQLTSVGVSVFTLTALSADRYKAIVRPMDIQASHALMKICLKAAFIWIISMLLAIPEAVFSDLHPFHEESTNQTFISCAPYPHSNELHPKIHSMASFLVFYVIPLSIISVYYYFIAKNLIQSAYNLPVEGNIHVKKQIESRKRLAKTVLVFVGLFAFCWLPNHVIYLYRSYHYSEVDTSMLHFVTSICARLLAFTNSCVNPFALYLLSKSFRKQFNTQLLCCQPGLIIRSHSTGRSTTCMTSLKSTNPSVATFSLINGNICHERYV

## CCCC[C@H](NC(=O)[C@H](CC1CCCCC1)NC(=O)[C@H](Cc1c[nH]cn1)NC(=O)CNC(=O)[C@@H](NC(=O)[C@H](C)NC(=O)[C@H](Cc1c[nH]c2ccccc12)NC(=O)[C@H](CCC(N)=O)NC(=O)CCNC(=O)CCNC(=O)CC(CCCCN)NC(=O)CN1CCN(CC(=O)O)CCN(CC(=O)O)CCN(CC(=O)O)CC1)C(C)C)C(N)=O (stereo partly drawn) [DOTA-Lys-BN, DOTA-β^3hLys-βAla-βAla-Gln^7-Trp^8-Ala^9-Val^10-Gly^11-His^12-Cha^13-Nle^14-NH2]
BN2/GRP receptors
  IC50: 2.03 ± 0.42 nM

## CCCC[C@H](NC(=O)[C@H](CC1CCCCC1)NC(=O)[C@H](Cc1c[nH]cn1)NC(=O)CNC(=O)[C@@H](NC(=O)[C@H](C)NC(=O)[C@H](Cc1c[nH]c2ccccc12)NC(=O)[C@H](CCC(N)=O)NC(=O)CCNC(=O)CCNC(=O)CC(CCCCN)NC(=O)CN1CCN(CC(=O)O)CCN(CC(=O)O)CCN(CC(=O)O)CC1)C(C)C)C(N)=O (stereo partly drawn) [^177Lu-DOTA-Lys-BN, metal not drawn]
[1]; 10 MBq/0.6 ml, 5 days, precipitation acetonitrile/ethanol (1:1) + 0.1% TFA, RP-HPLC radioactivity detector, performed two times, mean ± SD, read-out: remained intact after 5 days
  remaining at 120 h, 10 MBq/0.6 ml: 13.8 ± 5.7%
[1]; 10 MBq/0.6 ml, up to 12 days, RP-HPLC radioactivity detector, performed two times, mean ± SD
  half-life at 10 MBq/0.6 ml: 28.8 h
[1]; in vitro, as printed in hours in the discussion
  half-life (t1/2) in human plasma: 28.8 h
[2]
  logD: -2.18 ± 0.07
[3]; 1 h p.i. blocked, 100 μg unlabelled BN(1–14) co-injected, n = 3 to 4, read-out: Colon uptake, blocked
  tissue uptake at 1 h: 0.36 ± 0.07 %ID/g
[3]; 1 h p.i. blocked, 100 μg unlabelled BN(1–14) co-injected, n = 3 to 4, read-out: Pancreas uptake, blocked
  tissue uptake at 1 h: 0.49 ± 0.22 %ID/g
[3]; 1 h p.i. blocked, 100 μg unlabelled BN(1–14) co-injected, n = 3 to 4, read-out: Tumour uptake, blocked
  tissue uptake at 1 h: 0.55 ± 0.03 %ID/g
[3]; 1 h p.i., n = 3 to 4, read-out: Blood uptake
  tissue uptake at 1 h: 0.24 ± 0.07 %ID/g
[3]; 1 h p.i., n = 3 to 4, read-out: Bone uptake
  tissue uptake at 1 h: 0.36 ± 0.24 %ID/g
[3]; 1 h p.i., n = 3 to 4, read-out: Colon uptake
  tissue uptake at 1 h: 1.64 ± 0.4 %ID/g
[3]; 1 h p.i., n = 3 to 4, read-out: Heart uptake
  tissue uptake at 1 h: 0.14 ± 0.06 %ID/g
[3]; 1 h p.i., n = 3 to 4, read-out: Kidneys uptake
  tissue uptake at 1 h: 2.86 ± 0.63 %ID/g
[3]; 1 h p.i., n = 3 to 4, read-out: Liver uptake
  tissue uptake at 1 h: 0.26 ± 0.09 %ID/g
[3]; 1 h p.i., n = 3 to 4, read-out: Lung uptake
  tissue uptake at 1 h: 0.36 ± 0.08 %ID/g
[3]; 1 h p.i., n = 3 to 4, read-out: Muscle uptake
  tissue uptake at 1 h: 0.2 ± 0.24 %ID/g
[3]; 1 h p.i., n = 3 to 4, read-out: Pancreas uptake
  tissue uptake at 1 h: 8.68 ± 1.95 %ID/g
[3]; 1 h p.i., n = 3 to 4, read-out: Small intestine uptake
  tissue uptake at 1 h: 1.38 ± 0.41 %ID/g
[3]; 1 h p.i., n = 3 to 4, read-out: Spleen uptake
  tissue uptake at 1 h: 0.42 ± 0.12 %ID/g
[3]; 1 h p.i., n = 3 to 4, read-out: Stomach uptake
  tissue uptake at 1 h: 0.72 ± 0.19 %ID/g
[3]; 1 h p.i., n = 3 to 4, read-out: Tumour uptake
  tissue uptake at 1 h: 1.88 ± 0.47 %ID/g
[3]; 24 h p.i., 0.075 nmol, read-out: tumour-to-liver ratio
  tissue to tissue ratio at 24 h: 5.9
[3]; 24 h p.i., n = 3 to 4, read-out: Bone uptake
  tissue uptake at 24 h: 0.02 ± 0.01 %ID/g
[3]; 24 h p.i., n = 3 to 4, read-out: Colon uptake
  tissue uptake at 24 h: 0.36 ± 0.09 %ID/g
[3]; 24 h p.i., n = 3 to 4, read-out: Heart uptake
  tissue uptake at 24 h: 0.01 ± 0.01 %ID/g
[3]; 24 h p.i., n = 3 to 4, read-out: Kidneys uptake
  tissue uptake at 24 h: 1.41 ± 0.14 %ID/g
[3]; 24 h p.i., n = 3 to 4, read-out: Liver uptake
  tissue uptake at 24 h: 0.09 ± 0.02 %ID/g
[3]; 24 h p.i., n = 3 to 4, read-out: Lung uptake
  tissue uptake at 24 h: 0.02 ± 0.01 %ID/g
[3]; 24 h p.i., n = 3 to 4, read-out: Muscle uptake
  tissue uptake at 24 h: 0.01 %ID/g
[3]; 24 h p.i., n = 3 to 4, read-out: Pancreas uptake
  tissue uptake at 24 h: 4.27 ± 0.85 %ID/g
[3]; 24 h p.i., n = 3 to 4, read-out: Small intestine uptake
  tissue uptake at 24 h: 0.16 ± 0.03 %ID/g
[3]; 24 h p.i., n = 3 to 4, read-out: Spleen uptake
  tissue uptake at 24 h: 0.18 ± 0.04 %ID/g
[3]; 24 h p.i., n = 3 to 4, read-out: Stomach uptake
  tissue uptake at 24 h: 0.1 ± 0.02 %ID/g
[3]; 24 h p.i., n = 3 to 4, read-out: Tumour uptake
  tissue uptake at 24 h: 0.54 ± 0.3 %ID/g

## DO3A-CH2CO-8-aminooctanoyl-Gln-Trp-Ala-Val-Gly-His-Leu-Met-NH2 [^177Lu-AMBA]
[4]; ref [23]
  half-life (t1/2) in human plasma: 38.8 h
[5]; [6]
  GI uptake: 11.2 %ID
  tumour uptake: 6.35 ± 2.23 % ID/g
[5]; [7]
  GI uptake: 5.8 % ID

## DOTA-8-AOC-BN(7–14)NH2 [^177Lu-DOTA-8-AOC-BN(7–14)]
[5]; [6]
  GI uptake: 9.7 %ID
  tumour uptake: 2.84 ± 1.65 % ID/g
[5]; [7]
  GI uptake: 1.7 % ID
PC-3 xenografts
  tumour growth inhibition 3 weeks after the first dose: approximately 79%

## DOTA-15-amino-4,7,10,13-tetraoxapentadecanoic acid-Gln-Trp-Ala-Val-Gly-His-Leu-Met-NH2 [^177Lu-DOTA-PESIN]
[4]; ref [25]
  half-life (t1/2) in human plasma: 8.4 h
[5]; 1 h p.i., 0.2 nmol peptide, Gelofusine and polyglutamic acid co-administered, ref [25]
  kidney uptake: 3.8 ± 0.34 %ID/g
[5]; 1 h p.i., 0.2 nmol peptide, ref [25]
  tumour uptake: 11.6 ± 1.4 %ID/g
